# Experiments:
# [1] = molecular target: RsPIPS-FL (chimeric construct: Af2299 extramembrane domain fused to the complete RsPIPS sequence abs (Archaeoglobus fulgidus | Renibacterium salmoninarum)); assay: crystal structure; RsPIPS-FL with CDP-DAG, lipidic cubic phase (2% CDP-dioleoylglycerol/98% monoolein), 22 °C, 30% PEG 300, 0.1 M MES pH 6.0, 0.1 M NaCl, 0.1 M MgCl2; space group P 21, two dimers in the asymmetric unit; 3.6 Å
# [2] = molecular target: RsPIPS-Δ6N (chimeric construct: Af2299 extramembrane domain fused to the N-terminus of PIP synthase (Archaeoglobus fulgidus | Renibacterium salmoninarum)); assay: crystal structure; RsPIPS-Δ6N, apo, lipidic cubic phase (monoolein), 22 °C, 20% PEG 400, 0.1 M MES pH 6.7, 0.2 M lithium sulfate; space group P 21 21 2, one protomer in the asymmetric unit; 2.5 Å
substance,measurement,setting,value
RsPIPS-FL (chimeric construct: Af2299 extramembrane domain fused to the complete RsPIPS sequence abs (enzyme),stoichiometry N,[1],2
RsPIPS-Δ6N (chimeric construct: Af2299 extramembrane domain fused to the N-terminus of PIP synthase (enzyme),stoichiometry N,[2],2
